Experimental data as given in a protein production outcome set (Wang et al. 2014).

Experiment: label from the status in PepcDB records

Row | Sequence | protein production
1 | MGIRVKRRQHQHLLESLVHSTAKQQGDFTKTAELATELLCQNLAVSLVSIWIFSADQGTQSLVAQFGSMALQDTYRPSLLHTVPRYLNELKNYRHIDAGNTLIDPRLTELVDSYFIPRQILSSLDVGIRINGHLEGVLCIERAQVTHHWHDSEIHLACQMADQLALTLATKHAYDKEERLSLFRCAIEQSRQMSMLEHHHHHH | not failed
2 | MSSLRHRRYVLGGLLAAIGVLAAAVLWNVVGTVFFAVTVAYVLYPARQRLVNRGVPRRVASGLLTAAAFLTVVVLLAPIAWTIFRQRGAILEFLNNLPDELPVEAFGFVVTIDVADLVDTTADTLQSIAISLAADAIFLALQLLMFALVLYGLLLRPNAVGRAAFRVTPSPYHDILVALHRRIAGTLYALYVIQAATAVITFPLALIVFYLLGYPDVFVLAVLAALLQFIPIVGPGMLAAGLAGHDVLVGMPHRAVGVIILGPLFVGLLPDLLVRPRLAASKAKLPASLYFVGFVGGVLTVGVIGIIAGPLVVALLVEAVNLLSERNQSAA | failed
3 | MSYRGLPAMTRNDLTIYDDVAAQWWSDDIRWVRTLKAMVPGRLAFFDRKIDWRDKRVLDLGCAGGFMAEALCERGAIVTGIDPAAQAIDAAREHAELDGHDIRYDVGKGETLPYADDSFDAVVCVDVLEHVEDLDLVLSEVARTLVPGGMFFFDTINRNPLARFATITMAEDILRLLPKGTHDPDMFIKPGELHAALGRAGFVPGR | failed
4 | SSQGFIFNLSRPMFQDRRVRQALSLLWDFEWTNRQMMRNMYIRQDSYFSNSELAASQLPTPAELKILEPLRGTVPKEVFDTVFKTPKTDGTGLIRDKQLQALALMKEAGWTPKGDELVNAQGEPFSFTFLNAQSGFERMLLPYKRTLAQIGIHFDIRRIDSAQYLNRVMARDYDMIVTGYPVSTSPGAELYNSFGSKVAMDPGSSNYMALQDPAVDTLIAGLVKADNKQTMTDYAHCLDRVLQWNYYWIPNYYPP | failed
5 | MKEIVERVKTKTKIPVYERSVENVLSAVLASDDIWRIVDLSEEPLPLVVAILESLNELGYVTFEDGVKLTEKGEELVAEYGIGKRYDFTCPHCQGKTVDLQAFADLLEQFREIVKDRPEPLHEFDQAYVTPETTVARVILMHTRGDLENKDIFVLGDDDLTSIALMLSGLPKRIAVLDIDERLTKFIEKAANEIGYEDIEIFTFDLRKPLPDYALHKFDTFITDPPETLEAIRAFVGRGIATLKGPRCAGYFGITRRESSLDKWREIQKLLLNEFNVVITDIIRNFNEYVNWGYAEETRAWKLIPIKKLPEYNWYKSYMFRIETLEGSRGYEDEIPEEDIYNDEESSTT | not failed
6 | MKIAIVGSGNGAVTAAVDMVDKGHDVRLYCRNESISKFDVALEKGGFDFYNEGEEKFIEFTDISDDMEYVLDGADIVQVIIPSSFIEYYAKVMSKFVTNDHLIFFNIAASMGSIRFMNVLEDRHIDVHPHFAEANTLTYGTRVDFNNAKVDLSLNVRRVFFSTFDRSELNESYEKVSKIYDYLVKEESLLKTNL | failed
7 | MPKILWKSLHLCFPSNLTKCYSSPCIPPSSADPDGIIQPNRPSIVLLNNFNLLYHNDNHHHPHRVIDLPSSSTTTTPAATSSSSTSSYESDISPDVSAAFASRRFFFSSPGRSNAITDSPEPRSREFSDNYDDATITSTKKKKKKVYDNSVTTTTTRLISGGTAVTQHVDSPDPLTDFRRSMQEMIDAAIDAGELSRDPNDGYDFLDELLLTYLSLNPADTHKFVIRAFSDILVSLLSEERRIC | failed
8 | MQTFAPGTRVYHLIIIVFFFFFCLSSFFASIVMADEYTGEATGSSEAKVHIIYTEKPTDEEPKTYHLRTLSSALGSEEAAKDALIYSYKEAASGFSAKLTPEQVAEISKQPGVIQVVPSQTYQLHKPGGGGGFKLT | failed
9 | MLEEYEKKRDFNKTSEPPARGEEKNSDKPVFVVQRHDATNLHYDFRLEMDGVLKSWAVPKEPPKSPGTRRLAIETEDHPLGYADFEGEIPEGQYGAGRVEIWDRGTFELLKRNEKEIIITLHGEELEGDYVLIKTKYGKEDKGWLFFKKKTGLEHHHHHH | not failed
10 | MSAICQVTGRQPGYGKSVSHSHRRTSRRWNPNVQRRKFYLPSEGRTITLNVSTKGLKVIDRDGIESVVAKIRARGEKILEHHHHHH | failed
11 | MGLEEELLRIAKKLEKMVSRKKTEGALDLLKKLNSCQMSIQLLQTTRIGVAVNGVRKHCSDKEVVSLAKVLIKNWKRLLDSPRTTKGERE | not failed
12 | MTTFSHSSTTPSVSVTTASGNNQSQLVATPVPDEQRISFWPQHFGLIPQWVTLEPRVFGWMDRLCEDYCGGIWNLYTLNNGGAFIAPEPDEDDGETWILFNAMNGNRAEMSPEAAGIAACLMTYSHHACRTECYAMTVHYYRLRDYALQHPECSAIMRIID | failed
13 | MNKNQMLLGSFLCLLAVTAWGFMFPVMARALQFIDPFFFTTLRYGSAAIIFLILLLITEGKTSLRLEKRTLSLFFYGTVGFAGYGFLVFYGQQLAGPSGAIHAAMIQSLMPLIALSLQWITQNRRPQNYTFLCMFVALLGVMLVISKGNIELLFGAASHLSTNILMLCGVTCWVIYTNGAARFQSWSPLRYTTLTCLFGSISLIVIVTFLTYTNIVTMPSLRTVVSVRFELFYMSIIAGVIAVFCWNMGNRYISSINGILFMNLVPILALIGSIFRGYTVDKIEIAGAALTIIALLCNNLWQRKVNIKIPTSVR | failed
14 | MSRNYKEDQTNEVEALDSIYCGDMEILATEPHHKFQIPIATEEYSSEEPEKGLACKLVFTFTATYPDGAPVVEIEEPENFEDMFETRLLEHLQKTIEENLGMEMIFSLVSSAQEWLNERWDEHKFHQEELREQKLREIEEEERKKFEGTRVTVESFLKWKLEFEESTGIAAKREKNNVSKKQTGRELFMCDNTLNDSDIKFLLEAGENIENVKIDETLFQDIGELDLDDDDDEDWVPGADDDDD | failed
15 | MADSLAGIDQVTSLHKNNELQLLCFRLGKNKDLYAVNVFKIREVVKYHGNLTIISHENNSLVEGLIIIRELTIPLIDMKKWFYYDSQNKNKDLRPYRIEKEKGEDDIVMICEFSRWTIGVRIYEADRILSKKWTEMEQSAGLGGSAGNNKLVSRTRYFDGRLVQVVDIEKMLIDVFPWIEDEKHNDLETLSKIHSNQCVLLADDSPSVLKTMQMILDKLGVKHIDFINGKTLLEHLFNPTTDVSNIGLIITDLEMPEASGFEVIKQVKNNPLTSKIPIVVNSSMSGSSNEDMARSLKADDFISKSNPKDIQRVVKQFLELA | failed
16 | IQNVLSYITEHFSEGMSLKTLGNDFHINAVYLGQLFQKEMGEHFTDYLNRYRVNYAKEELLQTKDNLTIIAGKSGYTDMAYFYRQFKKHTGETPNRYRKIHQ | failed
17 | MEIRMAAAADFAEIWPLFQAVISSGDTYVFTPDTPEQDAYDYWFGAGVRCWVAVHEGRVVGMYKLIDNQRGLGNHVANASFMVDGEARGLGIGKALGLHCIKQATDLGYRAIQFNFVVSTNTLAVALWQKLGFEIIATLPGAFNHSQLGYVDAYVMHRALLPN | failed
18 | MTENELLTRCGGKCELCGSDVELAIYDLPASDGHENEIMICENCSSQIAAPDTMDMNHWRCLNDSMWSQVPAVQVMSYRMLKRLSGESWAQDLLDMLYLEDDLRAWGDAEAAAASDDTPPTLDSNGAVLNAGDTVVIIKDLNVKGTSFVAKRGTAVRNIALTNNPEHIEGRVNGTRIVILTCFVKKSLEHHHHHH | not failed
19 | MKENDGAPLKEGETASKYSVIINMILVVIKGFTGYLSGNIALIADAIHSFADVFSSAAVFIGLKLSQRKPDELFPYGYHRIETLVSLLVSVLIIITGLEITWDSIIYILNPASEVSMATASLAVSLISIGVSYAIAFYKVRVGRRIGSTALLNDGKHSYVDVISSILVFLGILGEYMGLHGFQGIAGVIISVVIIYIGIRLAKYDVLTLLDACIDRDSIEVIKKTVLSVPGVEGVHDIRIRRSGPYLFGELHIELERGLPVDKIEGIISQINSRVKEVLPSIDHLTVQPETVKREEVVVAVPLADNHGMESRISTHFGRADSFLIARTRRGEILDYRIIENSGKSLRTKRGIRAAELLKDENIDVLVIEKLSEGPELLFSDYLLGKVPPEGSSLEEVIKNASMKFSE | failed
20 | MQEIIIQVMNQFGYFGVAFLIMIENIFPPIPSEVILTFGGFMTTYSELGIIGMIIAATIGSVLGALILYFVGRLLSVERLEKLVSGRLGKVLRLKPEDITKAEKWFLKRGYATIFFCRFIPLIRSLISIPAGSAKMKLPSFLILTTLGTLIWNIVLVCLGAALGDNWEMIAGILDSYSSVVVVILGIIFILAILIFVKKRFFPKNKNYSSDTEK | not failed
